This is an account of results in article PMC6471057.

In the first experiment the target is HLA-E*01:01 on T2E cells (human | human (endogenous in T2)). Briefly: flow cytometry on cells; peptide stabilization on T2E cells (peptide 18 h at 37 °C), washed, without Brefeldin A; HLA-E surface level (mAb 3D12) at 0, 2, 4 and 6 h at 37 °C. In general terms: A flow cytometer gives signals particle by particle.
Take VMAPRTLIL [VIL9 peptide]: the DT50 (without Brefeldin A) was over 6 h.
On to LGHPDTLNQGEFKEL [LEL15 peptide], for which the DT50 (without Brefeldin A) was over 6 h.
On the same count and under the same terms, for SKGKIYPVGY [SY10 peptide] the value was over 6 h; for DVHDGKVVSTHEQ [DQ13 peptide], over 6 h; for LVDSGAQVSVVHPNL [LNL15 peptide], over 6 h.

The next experiment has the same target. Briefly: flow cytometry on cells; peptide stabilization on T2E cells (peptide 18 h at 37 °C), then 1 h with Brefeldin A 10 µg/mL, washed; HLA-E surface level (mAb 3D12) at 0, 2, 4 and 6 h at 37 °C; decrease taken as dissociation of the peptide from HLA-E.
For VMAPRTLIL [VIL9 peptide], the DT50 (incubation time for 50% of the p:HLA-E complexes to decay, with Brefeldin A) is over 6 h.
The same measure, in the same setting: the same measure for LGHPDTLNQGEFKEL [LEL15 peptide]: over 6 h.
SKGKIYPVGY [SY10 peptide] returned a DT50 (incubation time for 50% of the p:HLA-E complexes to decay, with Brefeldin A) of over 6 h.
On the same count and under the same terms, the same measure for DVHDGKVVSTHEQ [DQ13 peptide]: over 6 h; for LVDSGAQVSVVHPNL [LNL15 peptide]: over 4 h.

The target is the same in the next experiment. Described as above. The source holds these as a separate data set.
For the molecule VMAPRTLIL [VIL9 peptide], the reduction in HLA-E surface expression after 6 h was 23%.
DVHDGKVVSTHEQ [DQ13 peptide] came in with a reduction in HLA-E surface expression after 6 h of 1.5%.
LVDSGAQVSVVHPNL [LNL15 peptide] gave a DT50 (incubation time for 50% of the p:HLA-E complexes to decay, with Brefeldin A) of under 6 h.
